pKd: −log10 of the molar value.
How the values were obtained:
[1] = molecular target: Triosephosphate isomerase from G. gallus (G. gallus) (UniProt P00940); experiment: NMR titration; 2.5 μM [U-15N]-TPI with 1 mM GAP, titrated with 0-30 μM ribosomes; integrated amide proton envelope (6.30-10.54 ppm) of 1H-15N HSQC; 10 mM sodium phosphate pH 7.5, 0.1 M NaCl, 290 K; apparent Kd from the total binding equation with a nonspecific term; the paper calls it an upper limit to Kd
[2] = molecular target: Triosephosphate isomerase from G. gallus (G. gallus) (UniProt P00940); experiment: NMR titration; 2.5 μM [U-15N]-TPI with 5 mM DHAP, titrated with 0-30 μM ribosomes; integrated amide proton envelope (6.30-10.54 ppm) of 1H-15N HSQC; 10 mM sodium phosphate pH 7.5, 0.1 M NaCl, 290 K; apparent Kd from the total binding equation with a nonspecific term; the paper calls it an upper limit to Kd

Chain of Triosephosphate isomerase from G. gallus (G. gallus) (P00940 whole entry): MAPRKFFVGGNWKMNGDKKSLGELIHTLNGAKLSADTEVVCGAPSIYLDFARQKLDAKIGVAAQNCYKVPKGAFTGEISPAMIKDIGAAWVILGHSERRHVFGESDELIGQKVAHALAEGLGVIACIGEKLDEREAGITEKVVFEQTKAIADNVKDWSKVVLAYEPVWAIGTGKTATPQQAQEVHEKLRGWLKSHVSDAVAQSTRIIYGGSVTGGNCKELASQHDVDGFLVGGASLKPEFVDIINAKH

A pKd [1] of 5.92 and a pKd [2] of 5.98 were found for “Intact 70S ribosomes from E. coli MRE600 (from UniProt P0A7K2 1-121; P0A7R1 1-149; P0A7J3 1-165; P0A7J7 1-142; P02413 1-144; P0C018 1-117; P0A7L3 1-118; P61175 1-110; P0AG67 1-557; P02358 1-135; P0A7W7 1-130; P0A7R9 1-129) (complex)” in this work.
